We go through one molecule from patent US20220396632A1 (VERSEAU THERAPEUTICS, published 2022).

Non-standard residues stand in square brackets, D forms with d. No end group written: not given here. *: point of attachment. Biotin = O=C1N[C@H]2[C@H](CS[C@H]2CCCCC(=O)*)N1; sY = N[C@@H](Cc1ccc(OS(=O)(=O)O)cc1)C(=O)O

Assay [1] has as its target T1, Cynomolgus PSGL-1(ECD)-hFc1 (cynomolgus macaque).
T1 construct: also called Cyno PSGL1-Fc; Cyno PSGL-1(ECD)-Fc
Put plainly: ELISA, 20 nM mAb on plate cyno PSGL-1(ECD)-Fc. The method in brief:
(§1)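 Single-point (20 nM) or full-curve (0.003–200 nM) antibody binding measured against plate-immobilized recombinant cyno PSGL-1(ECD). Plates were coated overnight at 4 °C at 3 µg/mL in PBS pH 7.4, and antibody incubated 45 min at 37 °C. Detection was by TMB absorbance at 450 nm, with duplicate mean minus background.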
In general terms: An ELISA detects its analyte on a solid surface through an enzyme-linked reagent.

Assay [2] addresses T2, Cynomolgus PSGL-1(ECD)-HIS (cynomolgus macaque).
T2 construct: also called Cyno PSGL1-His
T2 chain: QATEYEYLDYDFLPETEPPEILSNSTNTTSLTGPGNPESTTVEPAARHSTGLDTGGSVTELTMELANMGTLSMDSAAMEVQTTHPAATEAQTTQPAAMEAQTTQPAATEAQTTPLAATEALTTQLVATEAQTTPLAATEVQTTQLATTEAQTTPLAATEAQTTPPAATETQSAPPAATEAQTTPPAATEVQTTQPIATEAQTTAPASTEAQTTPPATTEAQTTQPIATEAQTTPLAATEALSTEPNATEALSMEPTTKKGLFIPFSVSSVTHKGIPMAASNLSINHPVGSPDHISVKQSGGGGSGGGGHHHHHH
The assay can be described thus: ELISA, plate cyno PSGL-1(ECD)-HIS. In a few lines: as §1

For assay [3], the target named is T3, Recombinant human PSGL-1(ECD)-hFc1 (R&D Systems, Cat. 3345-PS) (human, UniProt Q14242 42-305).
T3 construct: Bought; Gln42-Val295 counted on AAC50061; also called PSGL-1-Fc; PSGL-1-hFc1 chimera; not shown: human IgG1 Fc, Pro100-Lys330
T3 sequence: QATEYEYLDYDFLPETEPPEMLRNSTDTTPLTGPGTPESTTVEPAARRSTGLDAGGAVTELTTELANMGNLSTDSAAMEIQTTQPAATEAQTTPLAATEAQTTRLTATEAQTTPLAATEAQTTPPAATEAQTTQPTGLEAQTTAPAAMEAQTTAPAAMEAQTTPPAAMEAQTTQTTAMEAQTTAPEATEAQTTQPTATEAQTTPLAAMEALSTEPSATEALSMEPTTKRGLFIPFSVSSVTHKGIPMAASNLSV
Put plainly: ELISA, plate-bound target.

The target in assay [4] is T4, Biotin Y46,48,51(SO3) PSGL-1(42-62) peptide (human, sulfotyrosine at Y46, Y48 and Y51; C-terminal Lys-biotin).
T4 construct: also called fully sulfated N-terminal PSGL-1 peptide
T4 peptide: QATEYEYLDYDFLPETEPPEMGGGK
Put plainly: ELISA, plate-bound target.

Assay [5] deals with T5, Biotin PSGL-1(42-62) peptide, unmodified (human, C-terminal Lys-biotin).
T5 construct: Residues 42-62 followed by GGGK-biotin; also called WT; wild-type
T5 peptide: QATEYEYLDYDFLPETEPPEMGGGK
The assay can be described thus: ELISA, plate-bound target.

Assay [6] addresses T3, Recombinant human PSGL-1(ECD)-hFc1 (R&D …). The assay can be described thus: blocking ELISA vs L-selectin-Fc. The method in brief: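 IC50 values come from sigmoidal curve fits of antibody titrations run in duplicate. The capture protein was PSGL-1-Fc (2.5 ug/mL, PBS pH 7.4, 4° C overnight); antibody incubation and HRP-streptavidin detection each lasted 45 min at 37° C.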
For assay [7] the target is unchanged. Put plainly: ELISA, 50 nM mAb. The procedure: (§2) Recombinant PSGL-1-hFc1 chimera protein consisting of PSGL-1's extracellular domain (ECD) served as a positive control. […] Primary antibody was added (25 ul per well) in duplicate at 50 nM in assay buffer (blocking buffer containing 0.05% Tween®20) into test and control (just blocked) wells and the plate incubated for 45 min at 37° C.

Assay [8] addresses T6, Sulfotyrosine CCR2b biotin peptide (human).
T6 construct: also called CCR2b peptide
T6 peptide: TTFFD[sY]D[sY]GAPSHGGK(Biotin)
Put plainly: ELISA, 50 nM mAb. As to the method: as §2

Assay [9] has as its target T7, Sulfotyr fibrinogen γ peptide (not fully specified; Y8 and Y12 sulfated (SO3); C-terminal biotin).
T7 construct: also called Fibrinogen gamma peptide; human sulfotyrosinylated fibrinogen peptide
T7 peptide: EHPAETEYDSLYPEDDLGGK
Put plainly: ELISA, 50 nM mAb. The procedure:
as §2

Assay [10] has as its target T4, Biotin Y46,48,51(SO3) PSGL-1(42-62) …. The assay can be described thus: ELISA, immobilized biotin peptide. The method in brief: (§3)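 In this ELISA, half-well high binding plates (Corning Cat. #3690) received 3 ug/mL/25 ul per well of biotin-tagged PSGL-1 peptides covering residues 42 to 62, diluted in PBS, pH 7.4, and coated overnight at 4° C. Duplicate readings for each antibody were averaged and the average assay background was subtracted. PSGL-1 protein or peptide was the positive control.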

For assay [11], the target named is T5, Biotin PSGL-1(42-62) peptide, unmodified. The assay can be described thus: ELISA, immobilized biotin peptide. The method in brief:
as §3

T1 sequence (chain, as listed by the source limits assumed): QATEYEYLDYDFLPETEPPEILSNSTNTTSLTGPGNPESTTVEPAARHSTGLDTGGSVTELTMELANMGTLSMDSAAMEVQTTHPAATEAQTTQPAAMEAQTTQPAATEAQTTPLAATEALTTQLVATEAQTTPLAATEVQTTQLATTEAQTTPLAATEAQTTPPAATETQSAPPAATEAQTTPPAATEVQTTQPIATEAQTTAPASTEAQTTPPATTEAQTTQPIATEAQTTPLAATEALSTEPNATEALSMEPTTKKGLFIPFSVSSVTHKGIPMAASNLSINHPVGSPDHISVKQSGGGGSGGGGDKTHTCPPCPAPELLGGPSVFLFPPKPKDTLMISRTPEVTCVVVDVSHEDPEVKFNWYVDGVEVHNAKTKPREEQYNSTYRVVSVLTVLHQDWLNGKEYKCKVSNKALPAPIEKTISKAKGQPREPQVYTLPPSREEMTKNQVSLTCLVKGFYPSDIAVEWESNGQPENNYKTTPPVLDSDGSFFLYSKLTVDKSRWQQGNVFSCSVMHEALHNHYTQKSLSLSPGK

B1: 16L15 (antibody, V domains shown)
VH: DVKLVESGGGLVKLGGSLKLSCAASGFTFSSYYMSWVRQTPEKRLEWVATISNGGGSTYYPDSVKDRFTISRDNAKNTLYLQMSSLNSEDTAVYYCAKPLYYSNPWFAYWGQGTLVTVSA
VL: DVLLTQTPLSLPVSLGDQASISCRSSQSIVHSNGNTYLEWYLQKPGQSPKLLIYKVSNRFSGVPDRFSGSGSGTDFTLKISRVEAEDLGVYYCFQGSHVPRTFGGGTKLEIK
notes: From mouse immunisation; only variable domains given
By EC50 is commonly meant the midpoint of the concentration-response curve. In general, IC50 refers to the concentration needed to halve the response being measured. For B1, the A450nm in [1] worked out at 1.22 A450 nm; in [7], 2.33 A450nm. For the same molecule, the EC50 was 0.53 nM in assay [2]; 0.96 nM in assay [3]; 0.92 nM in [4]; 0.89 nM in assay [5]; 0.699 nM in assay [10]; 0.695 nM in [11]. The “% max Block” value in [6] turned out to be 100%. Also, the IC50 in [6] was 9 nM. Moreover, the “binding normalized to PSGL-1” value in assay [8] is 0.03; in assay [9], 0.11.
